# Results taken from article PMC7837213, “Systematic Activity Maturation of a Single-Domain Antibody with Non-canonical Amino Acids through Chemical Mutagenesis” (Cell Chemical Biology, 2021).
# Substitutions are numbered along the chain they refer to. In names and notes the source's numbering stands.
# B1: DesAb-Aβ(3–9) (antibody, V domains shown)
# VH: EVQLVESGGGLVQPGGSLRLSCAASGFNIKDTYIGWVRRAPGKGKEWVASIYPTNGYTRYADSVKGRFTISADTSKNTAYLQMNSLRAEDTAVYYCAAGSHETLTLREEEAAAWGQGTLVTVSS
# notes: single-domain antibody on a human VH scaffold with the in-silico-designed CDR3 loop HETLTLR and a thermally stabilizing mutation; No cleavage of the tag is told; also called the starting construct; starting single-domain antibody; source: E. coli BL21 (DE3)-Gold, pRSET-B vector, purified (Ni-NTA, SEC); not shown: His6, N-terminal, kept
# B2: DesAb-Aβ(3–9) (T138captamine) (antibody, V domains shown)
# VH: B1 VH with T103C
# modifications: position 138: non-canonical side chain, captamine (2-(dimethylamino)ethanethiol) added to dehydroalanine (Dha) by thiol-Michael addition; epimeric mixture of D and L side chains
# notes: T138 is replaced through T138C and Dha by the captamine adduct; The new residue at 138 is written as C because the thiol adduct of Dha is an S-alkylated cysteine (S-(2-dimethylaminoethyl)cysteine); also called the captamine mutant; not shown: His6, N-terminal, kept
# Biological target: T1, Beta - Amyloid (1 - 42) - Lys(Biotin) - NH2, Human (human, UniProt P05067 672-713, Lys(Biotin) added at the C-terminus; C-terminal amide (NH2))
# T1 construct: amyloid-beta peptide (1-42), human, cut product of the amyloid precursor protein; numbers count on: the Aβ peptide; added C-terminal lysine that carries the biotin, amidated; Held on streptavidin biosensors by the C-terminal biotin; also called monomeric C-terminally biotinylated Aβ42; C-terminally immobilized monomeric Aβ42; source: bought: Anaspec
# T1 sequence (P05067 other isoform, or with tags, fused parts or gaps): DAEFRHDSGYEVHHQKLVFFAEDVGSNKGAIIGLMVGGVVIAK
# Experiment: BLI; C-terminally biotinylated monomeric Aβ42 (5 μg/ml) on streptavidin biosensors; antibodies at 20 μM in PBS + 0.1% BSA + 0.02% TWEEN 20, 30°C; association 900 s, dissociation 1200 s; signal of biocytin-coated sensors subtracted
# Conditions: both partners purified
row,binding result,Binder
1,binds,B1
2,binds,B2
